Measured values reported in US20050095242A1 (published 2005).
No end group written: not given here.

T1: biotinylated Compound 1 (biotinylated CCR4 partial peptide) (human, also: biotinylated, site not given here)
T1 peptide: DESIYSNYYLYESIPKPC

T2: BSA-Compound 1 conjugate (human CCR4 extracellular region peptide Compound 1 conjugated to bovine serum … (human, also: conjugated to BSA via SMCC))
T2 construct: Coated antigen of the ELISA; also called CCR4 partial peptide
T2 peptide: DESIYSNYYLYESIPKPC

T3: human CCR4 on CCR4/EL-4 cells (CCR4-high-expressing cells) (human, UniProt P51679 1-360)
T3 construct: also called human CCR4-high-expressing cell
T3 sequence: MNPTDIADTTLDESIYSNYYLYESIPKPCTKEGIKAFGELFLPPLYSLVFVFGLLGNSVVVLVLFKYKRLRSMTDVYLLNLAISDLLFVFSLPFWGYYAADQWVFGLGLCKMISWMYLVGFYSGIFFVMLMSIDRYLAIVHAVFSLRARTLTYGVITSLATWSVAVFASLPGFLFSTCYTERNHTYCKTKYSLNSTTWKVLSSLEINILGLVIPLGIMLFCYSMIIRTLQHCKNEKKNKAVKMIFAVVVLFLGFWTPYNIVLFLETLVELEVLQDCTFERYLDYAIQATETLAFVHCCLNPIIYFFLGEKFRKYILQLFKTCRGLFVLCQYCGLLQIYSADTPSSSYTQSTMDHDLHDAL


How the values were obtained:
[1] = target: T1, biotinylated Compound 1 (biotinylated …); assay: BIAcore 2000, 4 ug/ml antibody over biotinylated Compound 1 on SA sensor tip
Procedure: In order to measure the binding activity in more detail, the binding activity of various purified antibodies was measured by using BIAcore 2000 (manufactured by BIACORE) as follows. In this case, HBS-EP (manufactured by BIACORE) was used as the buffer for diluting samples and for the measurement. First, 5 μl of 0.01 μg/ml solution of Compound 1 as a biotinylated CCR4 partial peptide was added to a sensor tip SA (manufactured by BIACORE) at a flow rate of 5 μl/minute and immobilized on the sensor tip.
To the prepared biotinylated compound 1-immobilized sensor tip, 20 μl of 4 μg/ml solution of each of the purified antibodies was added at a flow rate of 5 μl/minute, and after completion of the addition, the dissociation reaction was monitored for 4 minutes and then the sensor tip surface was regenerated by adding 5 μl of 10 mM HCl twice. In this way, a binding reaction curve (sensorgram) for Compound 1 was obtained.

[2] = target: T2, BSA-Compound 1 conjugate (human CCR4 …); assay: ELISA, COS-7 culture supernatant on BSA-Compound 1 conjugate
Procedure: Into a 96 well ELISA plate (manufactured by Greiner), 0.05 μg/ml of the prepared conjugate was dispensed in at 50 μl/well and allowed to stand at 4° C. overnight for adsorption. After washing with PBS, PBS containing 1% BSA (hereinafter referred to as “1% BSA-PBS”) was added thereto at 100 μl/well and allowed to react at room temperature for 1 hour to block the remaining active groups. After washing each well with PBS containing 0.05% Tween 20 (hereinafter referred to as “Tween-PBS”), a culture supernatant of the transformant was added at 50 μl/well and allowed to react at room temperature for 1 hour. After the reaction and subsequent washing of each well with Tween-PBS, a peroxidase-labeled goat anti-human IgG(γ) antibody solution (manufactured by American Qualex) diluted 6,000 folds with 1% BSA-PBS was added as a secondary antibody solution at 50 μl/well and allowed to react at room temperature for 1 hour. After the reaction and subsequent washing with Tween-PBS, an ABTS substrate solution (a solution prepared by dissolving 0.55 g of 2,2′-azino-bis(3-ethylbenzothiazoline-6-sulfonic acid) ammonium in 1 liter of 0.1 M citrate buffer (pH 4.2) and adding 1 μl/ml hydrogen peroxide just before use) was added at 50 μl well to develop color, and the reaction was stopped 20 minutes thereafter by adding 5% SDS solution at 50 μl/well. Thereafter, absorbance at 415 nm was measured.

[3] = target: T2, BSA-Compound 1 conjugate (human CCR4 …); assay: ELISA on BSA-Compound 1 conjugate, reference antibody
[4] = target: T3, human CCR4 on CCR4/EL-4 cells …; assay: flow cytometry (immunofluorescent method) on CCR4/EL-4 cells, 10 ug/ml antibody, reference antibody
Procedure: Into a 96 well plate, 2×10⁵ or more of CCR4/EL-4 cells, CCR4-high-expressing cells obtained in Reference Example 1, were dispensed. An antibody solution was prepared by diluting each of the purified antibodies and a human immunoglobulin (manufactured by Welfide) for preventing nonspecific staining to give concentrations of 10 μg/ml and 3.75 mg/ml, respectively, with a buffer for FACS (1% BSA-PBS, 0.02% EDTA, 0.05% NaN₃), and the antibody solution was added at 100 μl/well and allowed to react for 30 minutes in ice. As a negative control, an anti-human IL-5 receptor α chain antibody (WO97/10354) was reacted with the same concentration. After washing twice with 200 μl/well of the buffer for FACS, a PE-labeled anti-human IgG antibody (manufactured by Coulter) diluted 100 times was added at 50 μl/well. After the reaction in ice under shading and subsequent washing three times with 200 μl/well of the buffer for FACS, the reaction product was suspended in 500 µl of the buffer for FACS and the fluorescence intensity was measured by using a flow cytometer.

Row | binding result [1] | binding result [2] | binding result [3] | binding result [4] | Binder
1 | binds | binds | – | – | anti-CCR4 CDR-grafted antibody Gal0LV0 (antibody, V domains shown, Expressed from pKANTEX93 with human CH and CL; CDR alone grafted) VH: EVQLVESGGDLVQPGRSLRLSCAASGFIFSNYGMSWVRQAPGKGLEWVATISSASTYSYYPDSVKGRFTISRDNAKNSLYLQMNSLRVEDTALYYCARHSDGNFAFGYWGQGTLVTVSS VL: DIVMTQSPLSLPVTPGEPASISCRSSRNIVHINGDTYLEWYLQKPGQSPQLLIYKVSNRFSGVPDRFSGSGSGTDFTLKISRVEAEDVGVYYCFQGSLLPWTFGQGTKVEIK
2 | – | binds | – | – | anti-CCR4 CDR-grafted antibody HV0LV0 (antibody, V domains shown, Expressed from pKANTEX93 with human CH and CL) VH: EVQLVESGGGLVQPGGSLRLSCAASGFTFSNYGMSWVRQAPGKGLEWVSTISSASTYSYYPDSVKGRFTISRDNSKNTLYLQMNSLRAEDTAVYYCARHSDGNFAFGYWGQGTLVTVSS VL: DIVMTQSPLSLPVTPGEPASISCRSSRNIVHINGDTYLEWYLQKPGQSPQLLIYKVSNRFSGVPDRFSGSGSGTDFTLKISRVEAEDVGVYYCFQGSLLPWTFGQGTKVEIK
3 | – | – | binds | binds | anti-CCR4 human chimeric antibody KM2760 (antibody, V domains shown, Produced by transformant KM2760 (FERM BP-7054); also called anti-CCR4 chimeric antibody KM2760) VH: EVQLVESGGDLMKPGGSLKISCAASGFIFSNYGMSWVRQTPDMRLEWVATISSASTYSYYPDSVKGRFTISRDNAENSLYLQMNSLRSEDTGIYYCGRHSDGNFAFGYWGRGTLVTVSA VL: DVLMTQTPLSLPVSLGDQASISCRSSRNIVHINGDTYLEWYLQRPGQSPKLLIYKVSNRFSGVPDRFSGSGSGTDFTLKISRVEAEDLGVYYCFQGSLLPWTFGGGTRLEIRR
